Source: the Immune Epitope Database (IEDB)

What was measured:
HLA-B*57:01 [1] = experiment: IEDB peptide-MHC binding, purified MHC/competitive/radioactivity; ≥ and ≤ were set here for values at or beyond the usual limits of such assays
HLA-B*57:01 [2] = experiment: IEDB peptide-MHC binding, purified MHC/competitive/radioactivity; filed as Kd, often an IC50 or EC50 that approximates it; ≥ and ≤ were set here for values at or beyond the usual limits of such assays
[3] = source organism: Mammarenavirus choriomeningitidis
[4] = source organism: Human immunodeficiency virus 2
[5] = source organism: Simian immunodeficiency virus

**Q.** For ATCGIFALI, which IC50 (HLA-B*57:01 [1]; [3]) is on record?
**A.** The IC50 was 200 nM.

**Q.** For ATIKLQSTV, which IC50 (HLA-B*57:01 [1]; source organism: Homo sapiens) is on record?
**A.** The IC50 was 100 nM.

**Q.** How did the IC50 (HLA-B*57:01 [1]; [3]) turn out when IVSSLHLSI was run?
**A.** The IC50 was 1000 nM.

**Q.** How did the IC50 (HLA-B*57:01 [1]; source organism: Homo sapiens) turn out when KIYEGQVEV was run?
**A.** Its IC50 is 10000 nM.

**Q.** KSNGTIIHV was tested. Which IC50 (HLA-B*57:01 [1]; source organism: Homo sapiens) did it give?
**A.** Its IC50 is 10000 nM.

**Q.** Which Kd (HLA-B*57:01 [2]; source organism: Homo sapiens) does the source give for KVAKVEPAV here?
**A.** The Kd was at least 70000 nM.

**Q.** KVGWAWWTC was tested. Which IC50 (HLA-B*57:01 [1]; [4]) did it give?
**A.** Its IC50 is 3000 nM.

**Q.** How did the Kd (HLA-B*57:01 [2]; [5]) turn out when LKSLYNTVC was run?
**A.** The Kd was at least 30000 nM.

**Q.** How did the Kd (HLA-B*57:01 [2]; [5]) turn out when LLHSTYFPC was run?
**A.** The Kd was at least 50000 nM.

**Q.** Which Kd (HLA-B*57:01 [2]; [3]) does the source give for MFEALPHII here?
**A.** Its Kd is at least 50000 nM.

**Q.** For MYGLKGPDI, which Kd (HLA-B*57:01 [2]; [3]) is on record?
**A.** The Kd was at least 50000 nM.

**Q.** Which Kd (HLA-B*57:01 [2]; [5]) does the source give for QAQLNAWGC here?
**A.** Its Kd is at least 40000 nM.

**Q.** For RARQLNYTI, which IC50 (HLA-B*57:01 [1]; source organism: Homo sapiens) is on record?
**A.** Its IC50 is 13.7 nM.

**Q.** With RTFHHGVRV as the sequence, how does the IC50 (HLA-B*57:01 [1]; source organism: Homo sapiens) read?
**A.** Its IC50 is 200 nM.

**Q.** How did the Kd (HLA-B*57:01 [2]; source organism: Homo sapiens) turn out when RVAGIHKKV was run?
**A.** The Kd was at least 70000 nM.

**Q.** Which IC50 (HLA-B*57:01 [1]; [3]) does the source give for SIFLHLVKI here?
**A.** Its IC50 is 500 nM.

**Q.** Which Kd (HLA-B*57:01 [2]; [5]) does the source give for SSCIAQDNC here?
**A.** The Kd was at least 50000 nM.

**Q.** Which IC50 (HLA-B*57:01 [1]; source organism: Homo sapiens) does the source give for TVAPFNPTV here?
**A.** Its IC50 is 1000 nM.

**Q.** Which IC50 (HLA-B*57:01 [1]; source organism: Homo sapiens) does the source give for VTTDIQVKV here?
**A.** The IC50 was 2000 nM.

**Q.** With WIQLGLQKC as the sequence, how does the Kd (HLA-B*57:01 [2]; [4]) read?
**A.** The Kd was at least 10000 nM.
